Source: the nanobody polyreactivity screen of Harvey et al. (2022)

Assay: yeast display, Sf9 membrane polyspecificity reagent, FACS + sequencing; frameworks hold sequencing errors
Method in brief: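 In a synthetic yeast display library (Saccharomyces cerevisiae BJ5465), nanobody expression was induced with galactose for 36–48 hours. FACS gates were set low and high (top ~1%) using anti-HA fluorescence for expression and streptavidin fluorescence for binding of the Sf9 membrane reagent. Each polyreactivity label is drawn from the gate of origin.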

Sequence | polyreactivity (PSR sort gate)
QVQLVESGGGLVQAGGSLRLSCAASGFTFTSYTMGWYRQAPGKERELVAGISTNGGTTYYADSVKGRFTISRDNAKNTVYLQMNSLKPEDTAVYYCNAKRKYGRFPKKYYYWGQGTQVTVSS | high polyreactivity
QVQLVESGGGLVQAGGSLRLSCAASGNIFYTYAMGWYRPAPGKERELVAAITWSGGSTYYADSVKGRFTISRDKAKKTVYLQMNSLKPEDTAVYYCAADSLGYYYSGGYYSIYDHWGQGTQVTVSS | high polyreactivity
QVQLVESGGGLVQAGGSLRLSCAASGRTFYRNAMGWYRQAPGKERELVAAISRGDSTYYADSVKGRFTISRDNAKNTVYLQMNSLKPEDTAVYYCAKRARRIGDVNMGSWGQGTQVTVSS | low polyreactivity
QVQLVESGGGLVQAGGSLRLSCAASGSTFYGNAMGWYRQAPGKERELVAAISWSGGSTYYADSVKGRFTISRDNAKNTVYLQMNSLKPEDTAVYYCNKDVLLYYVYGHDYWGQGTQVTVSS | low polyreactivity
QVQLVESGGGLVQAGGSIRLSCAASGSIFYYGLGWYRQAPGKERELVAAITRGGSTYYADSVKGRFTISRDNAKNTVYLQMNSLKPEDTAVYYCAKYPVGGYDYWGQGTQVTVSS | low polyreactivity
QVQLVESGGGLVQAGGSLRLSCAASGSIFYYNTMGWSRQSPGKERELVAAINTSGGSTYYADSVKGRFTISRDNATNTDYVQLNSLKPEDTAVYYCAVRYRYRFVAKGYWGQGTQVTVSS | high polyreactivity
QVQLVESGGGLVQAGGSLRLSCAASGTLATYAMGWYRQAPGKERELVAAIRYSDGRTYYADSVKGRFTISRDNAKNTFYLQMNSLKPEDTAVYYCAASFRGRGKKLDYWGQGTQVTVSS | low polyreactivity
QVQLVESGGGLVQAGGSLRLSCAASGNTFFVYAMGWDRQAPGKERELVATITLNGGSTYYADSVKGRFTISRDNAKNTVYLQMNSLKPEDTAVYYCAVEPDVYPSWYYYVDYDYWGQGTQVTVSS | low polyreactivity
QVQLVESGGGLVQAGGSLRLSCASSGRTFYLNAMGWYRQAPGKERELVAAISKRGGSTYYADSVKGRFTISRDNAKNTVYLQMNSLKPEDTAVYYCAKGFSFYSPRYDYWGQGTQVTVSS | high polyreactivity
QVQLVESGGGLVQAGGSLRLSCAASGNTFGYNAMGWYRQAPGKERELVAAISWRGGRTYYADSVKGRFTISRDHAKNTVYLQMNILKTEDTAVYYCAARRHSTRLRLTYDYWGQGTQVTVSW | high polyreactivity
QVKLVESGGGLVQAGGSLRLSCAASGRIFRFNPMGCYRQAPGKERELVAASNWRGGTTYADSVKGRFTISRDNAKNTVYLQMNSLKPEDTAVYYCNAGYGVTKWPYEERYDYWGQGTQVTLSS | high polyreactivity
QVQLVESGGGLVQAGGSLRLSCAASGSIFPSYAMGWYRQAPGKERELVAAISTWNDGGTYYADSVKGRFTISRDNGKNTVYLQMNSLKPEDTAVYYCAADSPKYYYDYDYWGQGTQVTVSS | low polyreactivity
QVQLVESGGGLVQAGGSLRLSCAASGSIFGQNAMGWYRQAPGKEREMVDAITSGAGITYYADSVKGRFTISRDNAKNTVYLQMNSLKPEDTAVYYCNAVPSWSPSALFDYWGQGTQVTVAS | low polyreactivity
QVQLVESGGVLVQAGGSLRLSCAASGFTFSHNAMGWYRLARGKERELVAAISKGGSSTYYADSVKGRFTISRDNAKNTVYLQMNSLKPEDTAVYYCARPSPHKGYDYWGQGTQVTESS | high polyreactivity
QVQLVESGGGLVQAGGSLRLSCAASGITFAKYAMGWYRQAPGKESELVAAISSSGGRTYYADSVKGRFTISRDNAKNTVYLQMNSLKPEDTAVYYCAADFSGPFDYWGLGTQVTVSS | high polyreactivity
QVQLVESGGGLVQAGGSLRLSCAASGSIFYHNPMGWYRQAPGKERELVAAITSRGGRTTYADSVKGRFTISRDNAKNTVYLQMNSLKPEDTAVYYCNAVYTGYSYISRVDYWGQGTQVTVSS | low polyreactivity
QVQLVESGGGLVQAGGSLRLSCAASGSTFAPNAMGWYRQAPGKERELVAAIRTNTGSTYYADSVKGRFTISRDNAKNTVYLQMNSLKPEDTAVYYCAAVFSGFYYAYDYWGQGTQVTVSS | high polyreactivity
QVQLVESGGGLVQAGGSLRLSCAASGFTSHSYAMGWYRKAPGKERELVAAINGDGGSTYYADSVKGRFTISRDNAKNTLYLQMNSLKPEDTAVYYCAAETAYWYYWGQGSQVTVSS | high polyreactivity
QVQLEESGGGLVQAGGSLRLSCAASGSILTDNAMGWYRQAPGKERELVAANSYSGASTYYADSVKGRFTISRDNAKNTVYLQMNSLKPEDTAVFYCAARYVSATPQLKARVRYYYWGQGTQVTVSS | high polyreactivity
QVQLVESGGGLVQAGGSLRLSCAASGRIFYTNAMGWYRKAPGKERELVAGITCSGDSTYYADSVKGRFTISRDNAKNTVYLQMNSLKPEDTPVYYCAARWRYVLMDYWGQGNQVTVSS | low polyreactivity
QVQVVESGGGLVQAGGSLRLSCAASGRIFNYNAMGWYRQAPGKERELVAAITRSGGSTYYADSVKGRFTISRDNAKNTVFLQMNSLKPEDTAVYYCNKRYIPWAYDYWGQGTQVTVSS | high polyreactivity
QVQLVESGGGLVQAGGSLRLSCAAYGSTFRRYGMGWYRQAPGKERELVAAISKGGTRTYYADSVKGRFTISRDNVKNTVYLQMNSLKPEDTAVYYCAAAGASSSTPQKEDYWGQGTQVTVSS | high polyreactivity
QVQLVESGGGLVQAGGSLRLSCAASGRIFGQYTMGWYRQAPGKERELVAAISRSSSTKYADSVKGRFTISRDNAKNTVYLQMNSLKPEDTAVYYCAAYVYYYGGRTYDYWGQGTQVTVSS | high polyreactivity
QVQLVESGGGLVQAGGSLRLSCAASGRTFPGYAMGWYRQAPGKERELVAAISSSGGSTYYADSVKGRFTISRDNAKNTVYLQMNSLKPEDTAVYYCNAAYRGRLYSWRYGYDYWGQGTQVTVSS | high polyreactivity
QVQLVESGGGLVQAGGSLRLSCAASGNIFHKNAMGWYSQAPGKERELVASISWSGGSTYYADSVKGRFTISRDNAKNTVYLQMKSLKPEDTAVYYCATDAFGYPGNRYALNDYWGQGTQVTVSS | low polyreactivity
QVQLVESGGGLVQAGGSLRLSCAASGRIFVINVMGWSRQAPGKERELVATITWSVGSTYYADSVKGRFTISRDTAKNTVYLQMNSLKPEDTAVYYCAAASSFKFDYWGQGTQVTVSS | low polyreactivity
QLQLVESGGGLVQAGGSLRLSCAASGRIFRKNAMGWYRQAPGKERELVAAITSSGNTYYADSVKGRFTISRDNAKNTVYLQMNSLKTEDTAVYYCAARLKWLNRYGYDYWGQGTQVTVSS | low polyreactivity
QVQLVESGGGLVQAGGSLRLSCAASGNIFIKNAMGWYRQAPGKERELVAAISFSGGSTYYADSVKGRFTISRDNAKNTVYLQMNSLKPEDTAVYYCNAVRRQARQYDYWGQGTQVTVSS | high polyreactivity
QVQLVESGGGLVQAGGSLRLSCAASGRTFGYYAMGWYRQAPGKERELVAAISWRGGSTYYADSVKGRFTISRDNAKNTVYLQMNSLKPEDTAVYYCNRAYVYPQGPYPYDYWGQGTQVTVSS | high polyreactivity
QVQLVESGGGLVQAGGSLRLSCAASGFIFYRYAMGWYRQAPGKERELVAAITGSGARTYYADSVKGRFTISRDNAKNTVYLQMNSLKPEDTAVYYCNARGYRGYDYWGQGTQVTVSS | high polyreactivity
